Results on three molecules are retold here after publication PMC3515690 (Nature structural & molecular biology, 2012).

Read-outs that look alike come from different tables or passages of the source.

Series [1] has as its target T1, Atg7 with a Gly-Gly-Ser-Gly insertion after Leu291 (S. cerevisiae, UniProt P38862 1-630, Gly-Gly-Ser-Gly insertion after Atg7’s Leu291).
T1 sequence (looked up): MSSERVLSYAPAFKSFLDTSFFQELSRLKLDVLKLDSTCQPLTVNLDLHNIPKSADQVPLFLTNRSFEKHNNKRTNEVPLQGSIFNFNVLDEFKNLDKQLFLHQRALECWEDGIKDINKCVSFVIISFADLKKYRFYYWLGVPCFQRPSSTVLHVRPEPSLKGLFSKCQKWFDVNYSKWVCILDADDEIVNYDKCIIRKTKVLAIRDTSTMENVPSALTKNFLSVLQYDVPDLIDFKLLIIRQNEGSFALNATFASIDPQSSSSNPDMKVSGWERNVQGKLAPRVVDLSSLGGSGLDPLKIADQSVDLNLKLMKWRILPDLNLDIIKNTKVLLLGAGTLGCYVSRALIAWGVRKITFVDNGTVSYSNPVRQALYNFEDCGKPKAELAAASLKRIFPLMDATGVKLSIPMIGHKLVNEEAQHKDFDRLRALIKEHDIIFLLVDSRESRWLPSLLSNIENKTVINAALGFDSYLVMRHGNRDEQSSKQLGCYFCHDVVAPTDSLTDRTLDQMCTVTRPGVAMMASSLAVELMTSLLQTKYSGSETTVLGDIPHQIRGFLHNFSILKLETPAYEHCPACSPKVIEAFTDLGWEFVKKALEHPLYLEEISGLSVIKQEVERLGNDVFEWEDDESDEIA
Kind of series: cross-linking.

Another series addresses T2, Atg7 P283D (S. cerevisiae, UniProt P38862 1-630, P283D).
T2 sequence (looked up): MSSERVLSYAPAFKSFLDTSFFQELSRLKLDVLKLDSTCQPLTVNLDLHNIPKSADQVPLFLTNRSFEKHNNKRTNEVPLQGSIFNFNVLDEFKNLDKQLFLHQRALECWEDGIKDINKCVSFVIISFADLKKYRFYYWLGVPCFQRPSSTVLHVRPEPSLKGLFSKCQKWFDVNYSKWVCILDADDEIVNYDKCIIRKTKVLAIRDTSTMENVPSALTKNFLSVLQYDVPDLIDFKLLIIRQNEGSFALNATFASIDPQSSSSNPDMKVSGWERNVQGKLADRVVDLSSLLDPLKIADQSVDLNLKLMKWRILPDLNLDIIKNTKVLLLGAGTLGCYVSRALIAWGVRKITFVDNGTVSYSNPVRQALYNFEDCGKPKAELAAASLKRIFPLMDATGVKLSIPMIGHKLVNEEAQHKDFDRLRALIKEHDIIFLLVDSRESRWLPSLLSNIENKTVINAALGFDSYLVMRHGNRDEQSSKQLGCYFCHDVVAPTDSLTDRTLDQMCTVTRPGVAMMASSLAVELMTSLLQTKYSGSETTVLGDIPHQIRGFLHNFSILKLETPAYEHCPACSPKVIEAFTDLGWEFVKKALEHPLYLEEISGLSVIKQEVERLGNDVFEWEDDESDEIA
Nature of the series: cross-linking.

Series [2] concerns the target T3, Atg7 with residues 290–294 deleted (S. cerevisiae, UniProt P38862 1-630, deletion of residues 290–294).
T3 sequence (looked up): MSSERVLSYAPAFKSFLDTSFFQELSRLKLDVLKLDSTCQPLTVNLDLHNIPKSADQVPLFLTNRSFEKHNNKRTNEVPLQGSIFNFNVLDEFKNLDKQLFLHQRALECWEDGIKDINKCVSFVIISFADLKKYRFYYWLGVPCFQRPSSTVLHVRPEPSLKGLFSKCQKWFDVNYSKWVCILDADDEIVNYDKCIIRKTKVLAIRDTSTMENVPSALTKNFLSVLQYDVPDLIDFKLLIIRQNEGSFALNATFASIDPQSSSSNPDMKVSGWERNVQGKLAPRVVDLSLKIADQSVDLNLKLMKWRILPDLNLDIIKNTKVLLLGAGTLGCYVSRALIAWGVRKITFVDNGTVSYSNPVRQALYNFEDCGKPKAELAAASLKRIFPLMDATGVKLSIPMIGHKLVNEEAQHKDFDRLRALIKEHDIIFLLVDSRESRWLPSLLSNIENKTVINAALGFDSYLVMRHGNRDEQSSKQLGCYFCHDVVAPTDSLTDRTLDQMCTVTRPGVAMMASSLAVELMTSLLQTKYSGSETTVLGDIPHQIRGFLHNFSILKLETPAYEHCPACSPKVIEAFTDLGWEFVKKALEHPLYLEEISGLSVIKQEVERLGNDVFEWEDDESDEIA
Kind of series: cross-linking.

Series [3] concerns the molecule itself. Kind of series: crystal structure.
Series [4] deals with the molecule itself. Kind of series: crystal structure. The source holds these as a separate data set.

B1: Atg10 (Cys133only, with C26A and C137A) (enzyme, S. cerevisiae, UniProt Q07879 1-167, looked up)
chain: MIPYQEWHSQLQSLYDSQIFHNWALAQDVHLNDEKDGLLLRLIPTRQLQKNTERIENKLLNHIELYLTYSKVYNEPLLLLRIWEEKSIDGIPMTKLMLPTDIESLLDVQGKFQLGLDTIINLEGSVWYSFHPCDTSAIVGDQAEFMSTYLRRWVSIFIFSWLGYEDS
modifications: Cys133 reacted with bismaleimidoethane (BMOE)
Take B1: the binding result (in series [1]; with Atg7 P283D; in series [2]) was “binds” throughout.

B2: Atg7 (residues 1–613) (enzyme, S. cerevisiae, UniProt P38862 1-613, looked up)
chain: MSSERVLSYAPAFKSFLDTSFFQELSRLKLDVLKLDSTCQPLTVNLDLHNIPKSADQVPLFLTNRSFEKHNNKRTNEVPLQGSIFNFNVLDEFKNLDKQLFLHQRALECWEDGIKDINKCVSFVIISFADLKKYRFYYWLGVPCFQRPSSTVLHVRPEPSLKGLFSKCQKWFDVNYSKWVCILDADDEIVNYDKCIIRKTKVLAIRDTSTMENVPSALTKNFLSVLQYDVPDLIDFKLLIIRQNEGSFALNATFASIDPQSSSSNPDMKVSGWERNVQGKLAPRVVDLSSLLDPLKIADQSVDLNLKLMKWRILPDLNLDIIKNTKVLLLGAGTLGCYVSRALIAWGVRKITFVDNGTVSYSNPVRQALYNFEDCGKPKAELAAASLKRIFPLMDATGVKLSIPMIGHKLVNEEAQHKDFDRLRALIKEHDIIFLLVDSRESRWLPSLLSNIENKTVINAALGFDSYLVMRHGNRDEQSSKQLGCYFCHDVVAPTDSLTDRTLDQMCTVTRPGVAMMASSLAVELMTSLLQTKYSGSETTVLGDIPHQIRGFLHNFSILKLETPAYEHCPACSPKVIEAFTDLGWEFVKKALEHPLYLEEISGLSVIKQEVER
modifications: catalytic Cys507 linked through bismaleimidoethane (BMOE) to Atg3 Cys234
The term stoichiometry N denotes the number of molecules, sites or subunits per partner or assembly. For the molecule B2, the “stoichiometry N” value in “crystal structure [3]” was found to be 2.

B3: Atg7(1–613 C39S C195S C375A) (enzyme, S. cerevisiae, UniProt P38862 1-613, looked up)
chain: MSSERVLSYAPAFKSFLDTSFFQELSRLKLDVLKLDSTSQPLTVNLDLHNIPKSADQVPLFLTNRSFEKHNNKRTNEVPLQGSIFNFNVLDEFKNLDKQLFLHQRALECWEDGIKDINKCVSFVIISFADLKKYRFYYWLGVPCFQRPSSTVLHVRPEPSLKGLFSKCQKWFDVNYSKWVCILDADDEIVNYDKSIIRKTKVLAIRDTSTMENVPSALTKNFLSVLQYDVPDLIDFKLLIIRQNEGSFALNATFASIDPQSSSSNPDMKVSGWERNVQGKLAPRVVDLSSLLDPLKIADQSVDLNLKLMKWRILPDLNLDIIKNTKVLLLGAGTLGCYVSRALIAWGVRKITFVDNGTVSYSNPVRQALYNFEDAGKPKAELAAASLKRIFPLMDATGVKLSIPMIGHKLVNEEAQHKDFDRLRALIKEHDIIFLLVDSRESRWLPSLLSNIENKTVINAALGFDSYLVMRHGNRDEQSSKQLGCYFCHDVVAPTDSLTDRTLDQMCTVTRPGVAMMASSLAVELMTSLLQTKYSGSETTVLGDIPHQIRGFLHNFSILKLETPAYEHCPACSPKVIEAFTDLGWEFVKKALEHPLYLEEISGLSVIKQEVER
modifications: catalytic Cys507 linked through bismaleimidoethane (BMOE) to Atg10 Cys133
For the molecule B3, the “stoichiometry N” value in the series “crystal structure [4]” was found to be 2.
